Measured values published in patent US20250296984A1, “THERAPEUTIC AND DIAGNOSTIC AGENTS AND USES THEREOF” (priority 2022, published 2025).

B1: 7B1F3: mouse IgG1 kappa antibody against US28 ECD1 Peptide-N; VH SEQ ID NO: 211, VL SEQ ID NO: 213 (antibody, V domains shown)
VH: EVQLQQSGAELAKPGASVKMSCKASGYTFTNYWMHWVKQRPGQGLEWIGYVNPRTGYTEYNQKFKDKATLTADKSSRTAYMQLSSLTSEDSAVYSCARILNGTGFAYWGQGTLVTVSA
VL: DIVLTQSPSSLTVSVGEKFTMSCKSSQSLLYSSNQKNYLAWYQQKPGQSPKLLIYWASTRESGVPDRFTGSGSGTDFTLAISSVKPEDLAIYYCQQYYSFPLTFGAGTKLEIK
modifications: Mature form of VH sequence of 7B1F3, without the leader sequence; Mature form of VL sequence of 7B1F3, without the leader sequence
B2: 13-5G6-1D3 rAb: recombinant antibody product of US28-13-5G6-1D3 produced in HEK293-F cells (antibody)
heavy: EVKLVESGGGLVQPGGSLRLACATSGFTFTDYYMSWVRQPPGKALEWLGFIRSKANGYTTEYSASVKGRFTISRDNSQSILYLQMNTLRSEDSATYYCARDERRTAWLAYWGQGTLVTVSAAKTTPPSVYPLAPGSAAQTNSMVTLGCLVKGYFPEPVTVTWNSGSLSSGVHTFPAVLQSDLYTLSSSVTVPSSTWPSETVTCNVAHPASSTKVDKKIVPRDCGCKPCICTVPEVSSVFIFPPKPKDVLTITLTPKVTCVVVDISKDDPEVQFSWFVDDVEVHTAQTQPREEQFNSTFRSVSELPIMHQDWLNGKEFKCRVNSAAFPAPIEKTISKTKGRPKAPQVYTIPPPKEQMAKDKVSLTCMITDFFPEDITVEWQWNGQPAENYKNTQPIMDTDGSYFIYSKLNVQKSNWEAGNTFTCSVLHEGLHNHHTEKSLSHSPGK
light: DVLMTQTPLSLPVSLGDQASISCRSSQSIVHSNGNTYLDWYLQKPGQSPKLLIYKVSNRFSGVPDRFSGSGSGTDFTLKISRVEAEDLGVYYCFQGSHVPTWTFGGGTKLEIKRADAAPTVSIFPPSSEQLTSGGASVVCFLNNFYPKDINVKWKIDGSERQNGVLNSWTDQDSKDSTYSMSSTLTLTKDEYERHNSYTCEATHKTSTSPIVKSFNRNEC

Columns and labels:
[1] = molecular target: T1, Peptide-N […] (SEQ ID NO: 177), HCMV US28 ECD1 (Human cytomegalovirus, UniProt P69332); experiment: ELISA, binding to Peptide-N (Bio-Peptide-N / Peptide-N-BSA coating)
T1 construct: Peptide-N was prepared via chemical synthesis: […]; made in house; host or cells: chemical synthesis
Procedure: (§1) Microtiter plate wells were coated with 100 μl of the solution containing: (i) Bio-Peptide-N; or (ii) Bio-Peptide-1 and Bio-Peptide-2; at a concentration of between 1-10 μg/ml in coating buffer, consisting of Na2CO3, 1.5 g and NaHCO3, 2.93 g in 1 L of distilled water in pH 9.6, and then incubated for 1-2 hours at room temperature. The plate was washed 3 times in wash buffer consisting of PBS containing 0.05% v/v Tween-20 and blotted with paper towels thereafter. 150 μl of blocking solution containing Phosphate buffered saline (PBS) containing 1% w/v BSA, was added to each well and the plate was incubated for 2 hours at 37° C. The wells were washed 4 times in wash buffer and blotted on paper towels after the last wash. 100 μl of antibody dilution was added to each well and the plate was incubated for 1 hour at 37° C. and thereafter washed 3 times in wash buffer. 100 μl enzyme-conjugated secondary antibody (appropriately diluted in wash buffer) was added to each well and the plate was incubated for 1 hour at 37° C. The wells were then again washed 3 times in wash buffer and blotted with paper towels after the last wash. […] The absorbance values were read immediately at the appropriate wavelength and the data analyzed by Cmax Plus, Molecular Devices, San Jose, CA 95134, USA,

BSA = BSA (Bos taurus, UniProt P02769); experiment: ELISA, BSA coating (control); type: binding; conditions: ECD1 subclones
Procedure: as §1

[2] = molecular target: T2, US28 protein on CHO-US28-A1 cells (Human cytomegalovirus, UniProt P69332, D170N/D19A); experiment: Flow cytometry (FACS) surface binding to CHO-US28-A1 cells; set-up: species or system human cytomegalovirus (HCMV); conditions: recombinant antibody (rAb), FIG. 7
T2 construct: expressed in transfected cells; host or cells: CHO-K1 (vector pCDH-EF1a-MCS)
Text: FIG. 2. Flowcytometry analysis showing surface binding of the US28-13-5G6-1D3 antibody clone on CHO-US28-A1 cells. From the left, blank control, 2nd antibody control and clone US28-13-5G6-1D3 Ab binding on the surface of the CHO-US28-A1 cells.
FIG. 3. The positive surface binding of the clone US28-13-5G6-1D3 on CHO-US28-A1 cells was further validated by gradient dilution in FACS analysis. From the left, the clone US28-13-5G6-1D3 Ab surface binding to the CHO-US28-A1 cells in dilutions 1:20, 1:50, 1:200 (w/v).
FIG. 4. The positive surface binding of the clone US28-13-5G6-1D3 on CHO-US28-A1 cells was compared with the US28 negative CHO control cells. The clone US28-13-5G6-1D3 Ab bound 15-fold more to the surface of the US28 positive CHO-US28-A1 cells than to the US28 negative CHO cells in 1:50 (w/v).
FIG. 7. […] The surface binding of the 13-5G6-1D3 rAb to CHO cells was only measured in 1:10 dilution (w/v) and was 0.77% after removing the binding to blank and anti-mouse IgG-Alexa 488 secondary Ab controls. […]
In a further embodiment, it is preferred that a binding molecule of the present invention binds preferentially to US28-expressing cells (such as CHO cells engineered to express US28) compared to its binding of US28-negative cells (such as wildtype CHO cells), for example, at a 1:50 (w/v) dilution, for example as determined by flow cytometry assay. […]

Chain of BSA (P02769 25-607): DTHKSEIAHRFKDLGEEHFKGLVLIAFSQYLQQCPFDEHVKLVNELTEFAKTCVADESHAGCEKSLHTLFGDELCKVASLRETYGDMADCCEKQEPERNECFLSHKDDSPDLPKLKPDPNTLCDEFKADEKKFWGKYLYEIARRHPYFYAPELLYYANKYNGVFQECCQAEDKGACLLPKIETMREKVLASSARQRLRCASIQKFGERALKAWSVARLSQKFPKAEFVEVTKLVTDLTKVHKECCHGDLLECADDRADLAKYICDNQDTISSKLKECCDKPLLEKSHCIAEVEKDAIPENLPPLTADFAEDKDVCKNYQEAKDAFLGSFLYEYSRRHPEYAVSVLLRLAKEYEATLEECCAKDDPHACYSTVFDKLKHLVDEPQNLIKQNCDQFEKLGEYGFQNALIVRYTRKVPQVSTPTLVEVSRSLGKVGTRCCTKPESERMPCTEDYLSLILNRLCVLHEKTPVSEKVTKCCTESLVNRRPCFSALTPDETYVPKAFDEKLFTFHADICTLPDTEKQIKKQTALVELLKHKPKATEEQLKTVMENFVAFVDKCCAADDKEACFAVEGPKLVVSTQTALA

Row | Molecule | absorbance, Coating: Peptide-N-BSA ([1]; ELISA absorbance, ECD1 subclones) | qualitative ELISA binding to Bio-Peptide-N ([1]; recombinant antibodies) | absorbance, Coating: BSA (BSA) | fold more surface binding on CHO-US28-A1 cells than to normal CHO cells [2] [fold]
1 | B1 | 2.7989 | equal, strong and high binding affinity | 0.0474 | 
2 | B2 |  |  |  | > 21
